In patent US10781452B2, “FLT3 receptor antagonists for the treatment or the prevention of pain disorders” (INSTITUT NATIONAL DE LA SANTE ET DE LA RECHERCHE MEDICALE …, priority 2010, dated 2020):

Molecular target: T1, FLT3 (Mus musculus, UniProt Q00342)
T1 construct: from tissue; host or cells: living mice (sensory neurons / DRG)
T1 sequence (Q00342 28-1000): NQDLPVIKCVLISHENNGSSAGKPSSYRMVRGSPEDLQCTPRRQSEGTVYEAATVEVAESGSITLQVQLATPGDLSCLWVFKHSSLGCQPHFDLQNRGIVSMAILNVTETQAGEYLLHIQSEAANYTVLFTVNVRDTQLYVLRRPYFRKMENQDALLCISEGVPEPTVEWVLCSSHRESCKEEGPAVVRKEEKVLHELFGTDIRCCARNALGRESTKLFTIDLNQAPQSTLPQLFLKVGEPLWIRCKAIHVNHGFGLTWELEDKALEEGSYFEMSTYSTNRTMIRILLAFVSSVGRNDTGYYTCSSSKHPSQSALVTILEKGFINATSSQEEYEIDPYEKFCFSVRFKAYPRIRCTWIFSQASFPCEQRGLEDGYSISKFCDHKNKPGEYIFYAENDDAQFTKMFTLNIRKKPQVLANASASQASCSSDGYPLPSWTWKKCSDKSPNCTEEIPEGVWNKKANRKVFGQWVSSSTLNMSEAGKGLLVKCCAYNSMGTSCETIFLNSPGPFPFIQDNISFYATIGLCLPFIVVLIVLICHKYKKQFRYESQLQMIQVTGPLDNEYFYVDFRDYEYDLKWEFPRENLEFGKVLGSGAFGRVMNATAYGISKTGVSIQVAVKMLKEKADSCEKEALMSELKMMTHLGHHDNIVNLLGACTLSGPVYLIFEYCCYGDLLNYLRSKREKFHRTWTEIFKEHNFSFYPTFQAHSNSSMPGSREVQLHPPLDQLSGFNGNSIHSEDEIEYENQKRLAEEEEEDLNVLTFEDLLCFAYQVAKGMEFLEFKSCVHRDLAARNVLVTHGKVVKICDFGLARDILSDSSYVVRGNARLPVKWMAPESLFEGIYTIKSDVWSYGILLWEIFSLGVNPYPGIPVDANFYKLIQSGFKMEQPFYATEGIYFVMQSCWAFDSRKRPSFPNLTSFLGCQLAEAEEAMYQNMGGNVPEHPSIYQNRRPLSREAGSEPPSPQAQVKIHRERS
Experiment: Chronic Constriction Injury (CCI) mouse model, mechanical hypersensitivity (0.6 g von Frey filament)
Assay type: in vivo
Experimental: The efficacy of the antibody A3 to reverse neuropathic pain was assessed in the Chronic Constriction Injury (CCI) mouse model of persistent peripheral neuropathic pain, consisting in three chronic ligatures tied loosely around the sciatic nerve (Bennett, G. J. & Xie, Y. K. A peripheral mononeuropathy in rat that produces disorders of pain sensation like those seen in man. Pain, 1988, 33:87-107). Neuropathic pain symptoms, such as mechanical hypersensitivity, develop within 10 days post-injury.
CCI model. The Chronic Constriction Injury (CCI) model was adapted for mice (Costa, B., Comelli, F., Bettoni, I., Colleoni, M. & Giagnoni, G. The endogenous fatty acid amide, palmitoylethanolamide, has anti-allodynic and anti-hyperalgesic effects in a murine model of neuropathic pain: involvement of CB(1), TRPV1 and PPARgamma receptors and neurotrophic factors. Pain, 2008, 139:541-550). Briefly, skin was incised and the sciatic nerve was exposed unilaterally at the […] by dissecting through the biceps femoris. […]
Mechanical nociception assay. […] The procedure was applied 10 times and the percentage of positive responses was calculated.
Data and statistical analyses. Data are expressed as the mean ±S.E.M. Statistical significance was determined by two-way analysis of variance (ANOVA) for repeated measures, over time. […]

B1: A3 antibody: human monoclonal antibody against FLT3; VH SEQ ID NO:1, VL SEQ ID NO:2 (antibody, V domains shown)
VH: EVQLVESGGSLVKPGGSLRLSCAASGFTFSNSYMNWVRQAPGKGLEWISDISGSSRDIDYADFVKGRFTISRDNATNSLYLQMNSLRAEDTAVYYCVRSGNSGMDVWGRGTLVTVSS
VL: QSVLTQPASVSGSPGQSITISCAGTSSDVGGGYYVSWYQQHPGKAPKLMIYYDSYRPSGVSNRFSGSKSGNTASLTISGLQAEDEADYYCSSYTNNSTRVFGGGTKLEIK
modifications: Synthetic VH domain of A3; Synthetic VL region of A3
mechanical sensitivity (percentage of withdrawal) after CCI injury (100 μg/animal intraperitoneal, 9 days after CCI, vs control irrelevant antibody): completely reduce mechanical sensitivity to the scores obtained before CCI injury | duration of inhibition of CCI-induced pain hypersensitivity (single injection, 100 μg/animal): 48 h
